According to the DeepSol protein solubility set:

Assay: soluble on expression in E. coli; label from the status in PepcDB or PDB records

| Sequence | soluble on expression in E. coli |
| --- | --- |
| MSLLVLGIESSCDETGVALYDTERGLRAHCLHTQMAMHAEYGGVVPELASRDHIRRLVPLTEGCLAQAGASYGDIDAVAFTQGPGLGGALLAGSSYANALALALDKPVIPVHHLEGHLLSPLLAEEKPDFPFVALLVSGGHTQIMAVRGIGDYALLGESVDDAAGEAFDKTAKLLGLLYPGGAKLSELAESGRFEAFVFPRPMIHSDDLQMSFSGLKTAVLTAVEKVRAENGADDIPEQTRNDICRAFQDAVVDVLAAKVKKALLQTGFRTVVVAGGVGANRKLRETFGNMTVQIPTPKGKPKHPSEKVSVFFPPTAYCTDNGAMIAFAGAMHLGKGREVGAFNVRPRWPLSEIVREGHHHHHH | soluble |
| MGSDKIHHHHHHMKGRMPIIEALCAHVERNATSWHVPGHKNGTLFEGLPSFFEWDKTELRGLDDFHYPEEAIYEAKLLLRQVYEARDSHFLINGSTVGNWAMLAAVSQRGDRIYVQRNSHKSVFNALEWLGLSPILLGPEIDPSTGISGNVSRETLEEALTTFPGGVAVFLTSPTYYGETARIEELLPFTTASGIPLLIDEAHGAHFGEAFGVRSAFELGATAVVQSAHKTLPALTMGAWIHERFTDDERRRLTRALQAFQTSSPSYLLMASLDFAREYREKWTVSNMKSVRTSHEHLHQQINQLTDITAFTFDDWSRMILSCEEYSGSQLIEALADQGLDAEFALGPHVVCILPLRSIEPFEQDTWINQIQLAIETLKAEGIPDKRYMEQPFMGKIKVSSLACPLDQLEDAEAVEQTFEQSVGLVSLETIIPYPPGIPLILRGERITAEHITMIEHYINTSIHLQGGEFLHQGKLRVIQEGIRE | not soluble |
| MSLTGFLLLHGTIVTVDRERRIIEDGALAINDDRIVDIGTVDELEPRHGGKEVIDCRGKLIIPGLIDAHGHAGHALLRSIAADTNAMWMKIITPTYYHYVTRDYWYADGLISGIERLRAGVTTGASIITSMPRADDPVFAINHARAYSELGLREIICVGPSGLPWPHPVTRWESGQPERRDVSFDEMMDGSEAVIETLHGSADGRISVFLTPFTIVPSVEPSNASSPDQAVKLTEGDRMQARRVREMARKRGVRLHSDAFAGQIRMAFQDKENALLGPDIHLQHCWGISHDEIDILAETGTRVTHAPPGRSTPIMEMMSKSIRVAITTDGAAPSRHFDMLQTARLAQFTQHLLHNHDRYLLPPGKIFEMITIDAAHAIGMEDEIGSLEIGKKADVVIIDMRKPHLMPMWMPVHRLVHQALGSDVDTVFVDGKLLMDNGRVLTSDVDAAITFGQQEAMALAERAGLKVHMHDPGWGRLLRTFDEQVYPPRPPKDASYRVTDHESGQDHEGHHHHHH | soluble |
| ARPAFVNKLWSMVNDKSNEKFIHWSTSGESIVVPNRERFVQEVLPKYFKHSNFASFVRQLNMYGWHKVQDVKSGSMLSNNDSRWEFENERHA | soluble |
| MKVIKGLTAGLIFLFLCACGGQQIKDPLNYEVEPFTFQNQDGKNVSLESLKGEVWLADFIFTNCETICPPMTAHMTDLQKKLKAGNIDVRIISFSVDPENDKPKQLKKFAANYPLSFDNWDFLTGYSQSEIEEFALKSFKAIVKKPEGEDQVIHQSSFYLVGPDGKVLKDYNGVENTPYDDIISDVKSASTLKLEHHHHHH | not soluble |
| MSLADFLRHRREALRPEDVGLSPGARRRARGLRREEVAALALMSTDYYTRLEQRRGPQPSERMLDSLARALRLTRAERDYLYRVAGHNAPASLSDPSPVAPALLRVLDRLDDTPALILTELGETLVQNRMAVALFGDASRHTGLARSAVYRWFTDPSERSVYPESDWGRQSRAQVANLRAAYGMRGARSHAGALVRILQQSNEEFAELWERHEVAQRFEDHKTLIHPEVGAIEVDCQALFTEDQSQTLLVLTAPPRTESHEKLQLLAVLGLHRFTEAEDQVREGHHHHHH | not soluble |
| MSMQHESPIKRRPSTRIYVGDVPIGDGAPIAVQSMTNTRTTDVAATVAQIKSLEKVGADIVRVSVPTMEAAEAFKLIKQQVSVPLVADIHFDYRIALKVAEYGVDCLRINPGNIGNEARIRSVVDCARDKGIPIRIGVNGGSLEKDLQLKYGEPTPEALVESAMRHVDILDRLNFDQFKVSVKASDVFLAVDSYRLLAKKIDQPLHLGITEAGGARAGSVKSAVGLGMLLAEGIGDTLRISLAADPVEEIKVGFDILKSLRIRSRGINFIACPSCSRQEFDVIGTVNALEQRLEDVLTPMDVSIIGCVVNGPGEAEVSHLGLAGSNKKSAFYEDGVRQKERFDNDDLVAQLEAKIRAKAARLDEKNRIDIKHVEQD | not soluble |
| MHHHHHHSSGMNWTVDIPIDQLPSLPPLPTDLRTRLDAALAKPAAQQPTWPADQALAMRTVLESVPPVTVPSEIVRLQEQLAQVAKGEAFLLQGGDCAETFMDNTEPHIRGNVRALLQMAVVLTYGASMPVVKVARIAGQYAKPRSADIDALGLRSYRGDMINGFAPDAAAREHDPSRLVRAYANASAAMNLVRALTSSGLASLHLVHDWNREFVRTSPAGARYEALATEIDRGLRFMSACGVADRNLQTAEIYASHEALVLDYERAMLRLSDGDDGEPQLFDLSAHTVWIGERTRQIDGAHIAFAQVIANPVGVKLGPNMTPELAVEYVERLDPHNKPGRLTLVSRMGNHKVRDLLPPIVEKVQATGHQVIWQCDPMHGNTHESSTGFKTRHFDRIVDEVQGFFEVHRALGTHPGGIHVEITGENVTECLGGAQDISETDLAGRYETACDPRLNTQQSLELAFLVAEMLRD | soluble |
| MSFIKTFSGKHFYYDKINKDDIVINDIAVSLSNICRFAGHLSHFYSVAQHAVLCSQLVPQEFAFEALMHDATEAYCQDIPAPLKRLLPDYKRMEEKIDAVIREKYGLPPVMSTPVKYADLIMLATERRDLGLDDGSFWPVLEGIPATEMFNVIPLAPGHAYGMFMERFNDLSELRKCA | soluble |
| RDTSVVVEHTSANPTGPVHVGRARNPIIGDAVARVLDYAGYDVDRHYYVNDAGRQIAVFTWAYETFDEDDLPEPERESPEYEMVRYYRKGNTILEDGDPDEVEAAEAEVQSILQGLEDGDEETYERVAEVVDTVLGGMQNTLGRLPAEFDEFVKETKFMRNGDTDDLVDRLKGLDCAVYEEDAWQLDLPDFEKNLVFLRSDGTSLYTTRDLAHHEWKFDTYDRAVTVLGEDHKLQADQLAAALELLDNDTDQLRQVFYSWVNLPEGGMSTREGTGIDLDDLLDEAIDRAREEVESRLDDRTRGDLDEDDIDRIARQVGIGAVRYDIVSKQPTKGITFEWDRALDFEAQSAPYVQYV | not soluble |
| MGHPARMAILSFLAKQESCFFGDIHEELPIAKATVSQHLKELKDAGLIQGEIETPKVRYCINKENWELARKLFAAFLGDCKCTGTSCCG | not soluble |
| MDNKALLTHVDINNVVCAMPLPYTRLYEGLASGLKAQFDGIPFYYAHMRGADIRVECLLNGVYDMAVVSRLAAESYLTQKGLCLALELGPHTYVGEHQLICRKGESANVKRVGLDNRSADQKIMTDVFFGGSDVERVDLSYHESLQRIVKGDVDAVIWNVVAENELTMLGLEATPLTDDPRFLQATEAVVLTRVDDYPMQQLLRAVVDKHALLAHQQRVVSGEQEPSY | soluble |
| MKELETRIIDIDVEKLRETLNKLGAKNVKRENQTNDIFDFPDRKLLDKKGYARIRTVEDLINNKTVYFMTTKKMLSQDKFKVMEENETIIEDGAMGKNIFKSLGLELFETIKKYRESYKYKDSLIEIDINDPSFCPFPYIEIETSSEEKLNEILIDLGYSMEDTTSKTIYEILKDKGISPDSNKKGLLEHHHHHH | soluble |
| MLKIGVLVSGRGSNLQAIIDAIESGKVNASIELVISDNPKAYAIERCKKHNVECKVIQRKEFPSKKEFEERMALELKKKGVELVVLAGFMRILSHNFLKYFPNKVINIHPSLIPAFQGLHAQKQAVEFGVKFSGCTVHIVDESVDAGPVIVQAVVPVLPEDDENTLADRILKWEHKILPQTVQWFAQDRIIIDGRKVIVKDATYGTLPVNPALEIF | soluble |
| MGSDKIHHHHHHMADNFLSQDEVDALLKGVSGEVDDAPQEAVDTGGPRPYNLATQERIVRGRMPTLEIINERFARLLRIGLYNFLRRGVEISVGPVRVSKYSEFIRNLVVPTNLNLVQFKPLRGTALMIFNPDLVFLMVDNLFGGDGRFHTRVEGRDFTQTEHRIIQRILNIVFEAYGKSWEPVYPIEFEFIRSEMNTQFANIATPNEVVVAVTFAIELGQISGEMHFCMPYSMIEPIKDLLTSSLQAENLEVDKRWIRLMRQQIQLAEVEIVADLGTAEVSLRDIVNLKVGDVIPLDIPPTIEAKVDGVPVMECAYGKFNGQYTLRVEKLLSTSAVEPKTGEQHV | not soluble |
| MKVSKIYTTIDAHVAGEPLRIITGGVPEIKGETQLERRAYCMEHLDYLREILMYEPRGHHGMYGCIITPPASAHADFGVLFMHNEGWSTMCGHGIIAVITVGIETGMFEVTGEKQKFIIDSPAGEVIAYATYSGSEVESVSFENVPSFVYKKDVPIKIDSYEFQVDIAFGGAFYAVVDSKEFGLKVDFKDLSAIQMWGGKIKHYIESKMEVKHPLEEGLKGIYGVIFSDDPKEKDATLRNVTIFADGQVDRSPCGTGTSARIATLFAKDALQKGEIFVHECITDGKFEGEVLSVTAVHTYEAVVPKVTGNAFITGFHQFVVDPRDDLNRGFLLGLEHHHHHH | not soluble |
| MGNKIHPIGFRLGITRDWESRWYAGKKQYRHLLLEDQRIRGLLEKELYSAGLARVDIERAADNVAVTVHVAKPGVVIGRGGERIRVLREELAKLTGKNVALNVQEVQNPNLSAPLVAQRVAEQIERRFAVRRAIKQAVQRVMESGAKGAKVIVSGRIGGAEQARTEWAAQGRVPLHTLRANIDYGFALARTTYGVLGVKAYIFLGEVIGGQKPKARPELPKAEERPRRRRPAVRVKKEE | soluble |
| SLGKKIETHLEDMVAQANAQLKLTAPESNLEVSYQNYHRGVFSSQLQLLVKPIAGKENPWIKSGQSVIFNESVDHGPFPLAQLKKLNLIPSMASIQTTLVNNEVSKPLFDMAKGETPFEINSRIGYSGDSSSDISLKPLNYEQKDEKVAFSGGEFQLNADRDGKAISLSGEAQSGRIDAVNEYNQKVQLTFNNLKTDGSSTLASFGERVGNQKLSLEKMTISVEGKELALLEGMEISGKSDLVNDGKTINSQLDYSLNSLKVQNQDLGSGKLTLKVGQIDGEAWHQFSQQYNAQTQALLAQPEIANNPELYQEKVTEAFFSALPLMLKGDPVITIAPLSWKNSQGESALNLSLFLKDPATTKEAPQTLAQEVDRSVKSLDAKLTIPVDMATEFMTQVAKLEGYQEDQAKKLAKQQVEGASAMGQMFRLTTLQDNTITTSLQYANGQITLNGQKMSLEDFVGMFAMPALNVPAVPAIPQQ | soluble |
| MAHHHHHHMRAEIPGVVPAVVSQVSEHQLPHLYPRHTAVTDSTALPREKSTLQRTDTTDSQLFSLADLQLARGNTRRPSRSRPTSPIRKDRIPRPPSVEFDVHLEVPRPHIRVSALPKHVMWPLPIPLPNLGNTCYMNSVVQCLRQSPSLALALEQCQLNAESHPAAAAMLNFFRMSEGDPKEFLVTFKSEAAKYNDEFKDFTQADAHEFLRTFLSVVHNEINTAPRAKLHIDDMGYVGKEDEETAFGMWRDQFACFDKSPIYDLFGGTTLGTCFCNSCENSSRTFEAFLDLSLPIGHEMPFGANLEAILQANFVEGKAEKMDGSNRIYCSRCKRLRSGSRCVVVRQWPKLLVLHLKRFDEYGKKNLVNVIYPETFMTGGEKSLRYSLYGVLMHSGTEMSGHYTSYVRVAFGEWYLCNDGAITPSRSVDVMQELEKAYILFYAEVPQVEPTFF | not soluble |
